The record followed here is patent US20110250165A1 (Dana-Farber, published 2011).

For assay [1], the target named is T1, human CXCR4 (wild type) (human, UniProt P61073 1-352).
T1 construct: whole, on cells; also called wtCXCR4
Kind of assay: flow cytometry, scFv-Fc on transfected 293T cells, FITC anti-human IgG. As to the method: (§1) Epitope mapping experiments were performed to determine the binding sites for the anti-CXCR4 antibodies of the invention. (See Example 5. infra). […] Analysis was performed using a flow cytometer. Binding activity was measured by MFI on total cells gated. The following formula was used to calculate the reactivity:reactivity to each clone=(MFI of chimeric receptor/MFI of wild type CXCR4)×100%.
(§2) Thirty six hours after transfection, the cells were harvested. […] The cells were then washed two times with 0.5% BSA/PBS/0.02% NaN3.
(§3) Next, FITC-labeled secondary antibodies were added to the cells and were allowed to incubate at 4° C. for 30 minutes. The cells were then washed again two times with 0.5% BSA/PBS/0.02% NaN3. Following the second wash, FACS analysis was performed.
(In general: In flow cytometry, cells or beads pass a laser one at a time.)

The target in assay [2] is T2, CXCR2 (UniProt P25025 1-360, limits assumed).
T2 construct: whole, on cells; also called 2222
T2 sequence (looked up): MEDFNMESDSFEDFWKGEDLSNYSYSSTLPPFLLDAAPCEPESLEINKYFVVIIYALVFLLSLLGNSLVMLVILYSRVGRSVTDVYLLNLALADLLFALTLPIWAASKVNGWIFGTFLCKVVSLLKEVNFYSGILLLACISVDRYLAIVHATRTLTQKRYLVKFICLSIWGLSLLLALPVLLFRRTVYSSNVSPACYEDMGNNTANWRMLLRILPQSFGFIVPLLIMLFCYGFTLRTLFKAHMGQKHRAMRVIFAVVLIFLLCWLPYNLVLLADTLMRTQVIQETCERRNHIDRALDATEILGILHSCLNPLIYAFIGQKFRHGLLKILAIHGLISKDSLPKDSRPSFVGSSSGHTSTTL
Described as above. The procedure: as §1, §2, §3

Assay [3] addresses Δ-X4. The description is as above. The procedure:
as §1, §2, §3

Assay [4] has as its target T3, 2444b CXCR2/CXCR4 chimera (human, UniProt P25025 1-48; P61073 39-352, limits assumed). The description is as above. The procedure: as §1, §2, §3
Assay [5] has as its target 4442 CXCR2/CXCR4 chimera. The description is as above. As to the method: as §1, §2, §3
Assay [6] concerns the target 2442 CXCR2/CXCR4 chimera. The description is as above. The procedure: as §1, §2, §3
Assay [7] addresses 2242 CXCR2/CXCR4 chimera. The description is as above. As to the method: as §1, §2, §3
In assay [8] the target is T4, rhesus macaque monkey CXCR4 (rhesus macaque, UniProt P79394 1-352).
T4 construct: whole, on cells
T4 sequence (P79394 whole entry): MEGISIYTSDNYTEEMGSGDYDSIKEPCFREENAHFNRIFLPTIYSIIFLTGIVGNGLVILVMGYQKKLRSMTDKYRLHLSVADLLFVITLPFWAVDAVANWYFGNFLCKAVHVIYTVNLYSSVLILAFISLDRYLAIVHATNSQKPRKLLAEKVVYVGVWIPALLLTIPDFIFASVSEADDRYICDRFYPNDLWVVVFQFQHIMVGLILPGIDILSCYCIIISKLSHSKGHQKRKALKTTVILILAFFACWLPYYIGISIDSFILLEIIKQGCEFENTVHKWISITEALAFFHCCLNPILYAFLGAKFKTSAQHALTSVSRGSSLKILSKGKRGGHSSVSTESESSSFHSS
Described as above. As to the method: as §1, §2, §3

Assay [9] has as its target T5, mouse CXCR4 (mouse, UniProt P70658 1-359).
T5 construct: whole, on cells; also called mice CXCR4
The assay is described as above. The procedure: as §1, §2, §3

Assay [10] deals with T1, human CXCR4 (wild type). The experiment in a line: FACS on 293T cells expressing CXCR4 variants.
In assay [11] the target is T3, 2444b CXCR2/CXCR4 chimera. Kind of assay: FACS on 293T cells expressing CXCR4 variants.
Assay [12] has as its target 4442 CXCR2/CXCR4 chimera. Kind of assay: FACS on 293T cells expressing CXCR4 variants.
Assay [13] has as its target 2442 CXCR2/CXCR4 chimera. The experiment in a line: FACS on 293T cells expressing CXCR4 variants.

T1 sequence (P61073 whole entry): as the sequence (P79394 whole entry) above, with I24M, H35N, R38K, K146R, S176N, D214V counted along it
T5 sequence (P70658 whole entry): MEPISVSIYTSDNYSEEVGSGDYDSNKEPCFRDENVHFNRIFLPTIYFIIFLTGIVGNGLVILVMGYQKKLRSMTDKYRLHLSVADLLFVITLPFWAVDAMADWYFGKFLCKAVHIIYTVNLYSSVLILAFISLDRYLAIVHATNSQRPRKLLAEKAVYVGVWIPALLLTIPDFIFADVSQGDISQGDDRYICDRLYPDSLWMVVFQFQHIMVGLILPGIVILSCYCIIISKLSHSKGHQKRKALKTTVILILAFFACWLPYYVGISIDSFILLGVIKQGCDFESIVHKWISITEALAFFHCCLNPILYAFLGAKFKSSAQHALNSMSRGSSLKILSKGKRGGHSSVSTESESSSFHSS

B1: 18-Fc (Fc fusion)
VH: QVQLVQSGAEVKKPGASVKVSCKASGYTFTSYGISWVRQAPGQGLEWMGWISAYNGNTNYAQKLQGRVTMTTDTSTSTAYMELRSLRSDDTAVYYCARDTPGIAARRYYYYGMDVWGQGTTVTVSS
VL: SSELTQDPAVSVALGQTVRITCQGDSLRKFFASWYQQKPGQAPVLVIYGKNSRPSGIPDRFSGSNSRNTASLTITGAQAEDEGDYYCNSRDSRDNHQVFGAGTKVTVL
notes: scFv-Fc fusion; also called X18; scFv-Fc 18
Take B1: the “reactivity (MFI of chimeric receptor/MFI of wild type CXCR4 x 100%)” value in [1] is 100%; in [2], 2%; in [3] it was 48.1%; in assay [4], 28.5%; in assay [5] it was 35.2%; in assay [6] it was 37.8%. For the same molecule, the “reactivity (MFI of chimeric receptor/MFI of wild type CXCR4 x 100%)” value in [7] amounted to 10.1%; in assay [8], 89.1%; in assay [9], 13.1%.

B2: 48-IgG1 (antibody, V domains shown)
VH: QVQLVQSGGGVVLPGRSLRLSCVASGFTFRRYGMHWVRQAPGKGLEWVSLISYDGSKTFYGESVKGRFTISRDNSKNTLYLQMNSLRAEDTAVYYCARATVTTDGYYYMDVWGKGTTVTVSS
VL: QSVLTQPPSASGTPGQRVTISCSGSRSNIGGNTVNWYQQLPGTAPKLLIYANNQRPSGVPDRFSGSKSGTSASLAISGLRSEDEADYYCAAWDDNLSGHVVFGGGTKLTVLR
notes: Bivalent whole human IgG1, VH and VL subcloned into human IgG1 lambda light chain expression vector TCAE6; also called mAb 48
Turning to B2, the “binding (+%)” value in [10] is 100%; in assay [11] it was -2.3%; in assay [12], 91.9%; in assay [13], -2.9%.

B3: 33-IgG1 (antibody, V domains shown)
VH: QVTLKESGGGVVQPGRSLRLSCAASGFTFTNYGLHWVRQAPGKGLEWVAVISHDGTKKYYADSVKGRFTISRDSSENTLYLQMNSLRPEDSALYYCARDGGYCSGGRCYSYGMDVWGQGTTVTVSS
VL: QSVLTQPPSASGTPGQRVTISCSGSRSNIGSNTVNWYQQLPGTAPKLLIYTNNQRPSGVPDRFSGSKSGTSASLAITGLQAEDEADYYCLSFDSSLTSYVFGTGTKVTVLG
notes: Bivalent whole human IgG1, VH and VL subcloned into human IgG1 lambda light chain expression vector TCAE6; also called mAb 33
B3: the “binding (+%)” value in assay [10] came to 100%; in assay [11], 1%; in assay [12], 99.5%; in [13], 1.5%.

B4: 19-Fc (Fc fusion)
VH: QVQLVQSGGGVVQPGRSLRLSCAASGFTFSSYPMHWVRQAPGKGLEWMTVISSDGRNKYYPDSVKGRFTISRDNSKNTLYLQMNSLRPEDTAVYYCARGGYHDFWSGPDYWGQGTLVTVSS
VL: EIVLTQSPATLSVSPGERATLSCRASQSVNTNLAWYQQKPGQAPRLLIYGASSRATGIPDRFSGSGSGTDFTLTISRLEPEDFAVYYCQHYGSSPLTFGGGTKLEIK
notes: scFv-Fc fusion; also called X19; scFv-Fc 19
On to B4, for which the “reactivity (MFI of chimeric receptor/MFI of wild type CXCR4 x 100%)” value in [1] turned out to be 100%; in assay [2] it was 7.5%; in assay [3], 11%; in assay [4], 8.5%; in assay [5] it was 5.3%; in [6], 7.1%. Also, the “reactivity (MFI of chimeric receptor/MFI of wild type CXCR4 x 100%)” value is 5.2% in assay [7], 35.1% in assay [8] and 5.6% in assay [9].
